Assay results taken from US20240270818A1 (PETMEDIX, published 2024).
Like-named read-outs stand apart in the source and are kept apart here.

What was measured:
[1] = target: NGF (species not stated at the place) (Homo sapiens (Human)) (UniProt P01138); assay: cell-based or functional assay
[2] = target: NGF (species not stated at the place) (Homo sapiens (Human)) (UniProt P01138); assay: cell-based or functional assay; remark: listed apart in the source
[3] = target: T1, rat Nerve Growth Factor (rat, UniProt P25427 122-241, limits assumed); assay: SPR (Biacore 8K), fusion captured on Protein A chip
T1 construct: Bought recombinant protein; also called rNGF; rat NGF
Experimental: (§1) Binding affinity of fusion proteins to human and rat NGF was assessed using Biacore 8K (Cytiva). Briefly, Protein A Sensor Chip (Cytiva) was docked into Biacore 8K, equilibrated for 30′ at RT and then Running Buffer (10 mM HEPES pH7.4 150 mM NaCl 3 mM EDTA and 0.005% Tween20) was applied to the SPR chip surface.
(§2) These were immobilised using 90 see association at 10 uL/min as capturing step, followed by injection of running buffer to remove any unbound product.
(§3) Kinetics were assessed using multi-cycle kinetics with capture step method (30 see association-300 see dissociation) followed by regeneration step (0.1M Glycine pH2.2 contact time 60 see FR 30 uL/min). Kinetics quantification have been performed using Biacore Insight following standard analyses methods.

[4] = target: T2, human Nerve Growth Factor (human, UniProt P01138 122-241); assay: SPR (Biacore 8K), fusion captured on Protein A chip, hNGF as analyte, multi-cycle kinetics
T2 construct: Bought recombinant protein; also called hNGF; human NGF
Experimental: as §1, §2, §3

[5] = target: T2, human Nerve Growth Factor; assay: cell-based or functional assay
[6] = target: NGF (species not stated at the place) (Homo sapiens (Human), UniProt P01138 122-241); assay: cell-based or functional assay
[7] = target: T2, human Nerve Growth Factor; assay: SPR (Biacore 8K), fusion captured on Protein A chip
Experimental: as §1, §2, §3

T1 sequence (P25427 122-241 limits assumed): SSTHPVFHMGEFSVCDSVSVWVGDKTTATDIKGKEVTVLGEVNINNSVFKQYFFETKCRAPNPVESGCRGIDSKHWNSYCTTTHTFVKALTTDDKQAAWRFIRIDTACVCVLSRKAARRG
T2 sequence (P01138 122-241 limits assumed): as the sequence (P25427 122-241 limits assumed) above, with T3S, V6I, M9R, T37M, A60D, E65D, T92M, D94G, A117V, G120A counted along it

Row | Binder | Bottom (%), PathHunter TrkA activation assay [1] | Top (%), PathHunter TrkA activation assay [1] | TrkA inhibition, PathHunter luminescence [1] | Bottom (%), PathHunter TrkA activation assay [2] | Top (%), PathHunter TrkA activation assay [2] | binding result [3] | Kd [4] | IC50 (nM), inhibition of TF-1 cell proliferation [5] | ICMAX (%), inhibition of TF-1 cell proliferation [5] | Bottom (%), PathHunter TrkA activation assay [6] | IC50 (nM), PathHunter TrkA activation assay [6] | Top (%), PathHunter TrkA activation assay [6] | fold reduced affinity relative to PetML 119 wt [7]
1 | Bedinvetmab (antibody, INN chains, looked up, V domains shown) VH: EVQLVESGGDLVKPGGSLRLSCVASGFTFSSHGMHWVRQSPGKGLQWVAVINSGGSSTYYTDAVKGRFTISRDNAKNTVYLQMNSLRAEDTAMYYCAKESVGGWEQLVGPHFDYWGQGTLVIVSS VL: QSVLTQPTSVSGSLGQRVTISCSGSTNNIGILGASWYQLFPGKAPKLLVYGNGNRPSGVPDRFSGADSGDSVTLTITGLQAEDEADYYCQSFDTTLGAHVFGGGTHLTVL | 5.35% | 123% | 100% | 2.11% | 93.5% | – | – | – | – | – | – | – | –
2 | PetML 119-S109Y (canine p75NTR ECD S109Y-canine IgGB wt Fc) (Fc fusion, Signal peptide (first 19 residues) left out as for m1) KEACPTGLYTHSGECCKACNLGEGVAQPCGANQTVCEPCLDSVTFSDVVSATEPCKPCTECVGLQSMSAPCVEADDAVCRCAYGYYQDETTGRCEACRVCEAGSGLVFYCQDRQNTVCEECPDGTYSDEANHVDPCLPCTVCEDTERQLRECTRWADAECEEIPGRGGGGRENGRVPRPPDCPKCPAPEMLGGPSVFIFPPKPKDTLLIARTPEVTCVVVDLDPEDPEVQISWFVDGKQMQTAKTQPREEQFNGTYRVVSVLPIGHQDWLKGKQFTCKVNNKALPSPIERTISKARGQAHQPSVYVLPPSREELSKNTVSLTCLIKDFFPPDIDVEWQSNGQQEPESKYRTTPPQLDEDGSYFLYSKLSVDKSRWQRGDTFICAVMHEALHNHYTQKSLSHSPGK | – | – | – | – | – | binds | 0.225 nM | 2.15 nM | 93.5% | 7.79% | 2.15 nM | 87.3% | –
3 | PetML 119-S109H (canine p75NTR ECD S109H-canine IgGB wt Fc) (Fc fusion, Signal peptide left out as for m1; If the listing holds it too, the entry is 425 residues long) KEACPTGLYTHSGECCKACNLGEGVAQPCGANQTVCEPCLDSVTFSDVVSATEPCKPCTECVGLQSMSAPCVEADDAVCRCAYGYYQDETTGRCEACRVCEAGSGLVFHCQDRQNTVCEECPDGTYSDEANHVDPCLPCTVCEDTERQLRECTRWADAECEEIPGRGGGGRENGRVPRPPDCPKCPAPEMLGGPSVFIFPPKPKDTLLIARTPEVTCVVVDLDPEDPEVQISWFVDGKQMQTAKTQPREEQFNGTYRVVSVLPIGHQDWLKGKQFTCKVNNKALPSPIERTISKARGQAHQPSVYVLPPSREELSKNTVSLTCLIKDFFPPDIDVEWQSNGQQEPESKYRTTPPQLDEDGSYFLYSKLSVDKSRWQRGDTFICAVMHEALHNHYTQKSLSHSPGK | – | – | – | – | – | binds | 0.267 nM | 0.17 nM | 88.5% | 10.3% | 2.2 nM | 48.3% | –
4 | PetML 119-D134L (canine p75NTR ECD D134L-canine IgGB wt Fc) (Fc fusion, Signal peptide (first 19 residues) left out as for m1) KEACPTGLYTHSGECCKACNLGEGVAQPCGANQTVCEPCLDSVTFSDVVSATEPCKPCTECVGLQSMSAPCVEADDAVCRCAYGYYQDETTGRCEACRVCEAGSGLVFSCQDRQNTVCEECPDGTYSDEANHVLPCLPCTVCEDTERQLRECTRWADAECEEIPGRGGGGRENGRVPRPPDCPKCPAPEMLGGPSVFIFPPKPKDTLLIARTPEVTCVVVDLDPEDPEVQISWFVDGKQMQTAKTQPREEQFNGTYRVVSVLPIGHQDWLKGKQFTCKVNNKALPSPIERTISKARGQAHQPSVYVLPPSREELSKNTVSLTCLIKDFFPPDIDVEWQSNGQQEPESKYRTTPPQLDEDGSYFLYSKLSVDKSRWQRGDTFICAVMHEALHNHYTQKSLSHSPGK | – | – | – | – | – | – | 6.8 nM | 329 nM | 70.5% | 53.7% | 20.8 nM | 82.7% | 20 fold
5 | PetML 119-V133R (canine p75NTR ECD V133R-canine IgGB wt Fc) (Fc fusion, Signal peptide (first 19 residues) left out as for m1) KEACPTGLYTHSGECCKACNLGEGVAQPCGANQTVCEPCLDSVTFSDVVSATEPCKPCTECVGLQSMSAPCVEADDAVCRCAYGYYQDETTGRCEACRVCEAGSGLVFSCQDRQNTVCEECPDGTYSDEANHRDPCLPCTVCEDTERQLRECTRWADAECEEIPGRGGGGRENGRVPRPPDCPKCPAPEMLGGPSVFIFPPKPKDTLLIARTPEVTCVVVDLDPEDPEVQISWFVDGKQMQTAKTQPREEQFNGTYRVVSVLPIGHQDWLKGKQFTCKVNNKALPSPIERTISKARGQAHQPSVYVLPPSREELSKNTVSLTCLIKDFFPPDIDVEWQSNGQQEPESKYRTTPPQLDEDGSYFLYSKLSVDKSRWQRGDTFICAVMHEALHNHYTQKSLSHSPGK | – | – | – | – | – | binds | 0.346 nM | 5.06 nM | 80.5% | 14.3% | 2.56 nM | 49.3% | –
6 | PetML 119-E75T (canine p75NTR ECD E75T-canine IgGB wt Fc) (Fc fusion, Signal peptide (first 19 residues) left out as for m1) KEACPTGLYTHSGECCKACNLGEGVAQPCGANQTVCEPCLDSVTFSDVVSATEPCKPCTECVGLQSMSAPCVEATDAVCRCAYGYYQDETTGRCEACRVCEAGSGLVFSCQDRQNTVCEECPDGTYSDEANHVDPCLPCTVCEDTERQLRECTRWADAECEEIPGRGGGGRENGRVPRPPDCPKCPAPEMLGGPSVFIFPPKPKDTLLIARTPEVTCVVVDLDPEDPEVQISWFVDGKQMQTAKTQPREEQFNGTYRVVSVLPIGHQDWLKGKQFTCKVNNKALPSPIERTISKARGQAHQPSVYVLPPSREELSKNTVSLTCLIKDFFPPDIDVEWQSNGQQEPESKYRTTPPQLDEDGSYFLYSKLSVDKSRWQRGDTFICAVMHEALHNHYTQKSLSHSPGK | – | – | – | – | – | – | 12.4 nM | 18.2 nM | 72.5% | 44.5% | 82.6 nM | 72.6% | 40 fold
7 | PetML 119 (canine p75NTR ECD-canine IgGB wt Fc protein fusion) (Fc fusion, The end, 422, is my own count; also called WT molecule) KEACPTGLYTHSGECCKACNLGEGVAQPCGANQTVCEPCLDSVTFSDVVSATEPCKPCTECVGLQSMSAPCVEADDAVCRCAYGYYQDETTGRCEACRVCEAGSGLVFSCQDRQNTVCEECPDGTYSDEANHVDPCLPCTVCEDTERQLRECTRWADAECEEIPGGGGRENGRVPRPPDCPKCPAPEMLGGPSVFIFPPKPKDTLLIARTPEVTCVVVDLDPEDPEVQISWFVDGKQMQTAKTQPREEQFNGTYRVVSVLPIGHQDWLKGKQFTCKVNNKALPSPIERTISKARGQAHQPSVYVLPPSREELSKNTVSLTCLIKDFFPPDIDVEWQSNGQQEPESKYRTTPPQLDEDGSYFLYSKLSVDKSRWQRGDTFICAVMHEALHNHYTQKSLSHSPGK | – | – | – | – | – | binds | 0.309 nM | 4.46 nM | 73.1% | 9.5% | 8.04 nM | – | –
